From publication PMC11840766 (ACS Omega, 2025) come the findings set out here.

For this experiment, the target named is T1, extracellular protein domain (position 43-300) of human CD38 (Homo sapiens, UniProt P28907).
T1 construct: human CD38, extracellular domain, position 43-300; also called CD38 (extracellular domain); source: kindly provided by Dr. Hanna Tegel
Put plainly: SPR; ProteOn XPR36; scFv_(CD38) sortase-coupled to a G5-silk coating on bare gold outside the instrument; CD38 extracellular domain (printed: 200 mM) in PBS pH 7.4/0.01% Tween 20 flown at 25 uL/min, 30 min. The note with it: both partners purified.

B1: scFv_(CD38)-silk (scFv_(CD38) sortase-coupled to the N-terminus of G5-FN-4RepCT), as silk coating (scFv, V domains shown)
VH: QVQLVQSGAEVKKPGSSVKVSCKPSGGTFRSYAISWVRQAPGQGLEWMGRIIVFLGKVNYAQRFQGRVTLTADKSTTTAYMELSSLRSEDTAVYYCTGEPGARDPDAFDIWGQGTMVTVSS
VL: DIQMTQSPSSLSASVGDRVTITCRASQGIRSWLAWYQQKPEKAPKSLIYAASSLQSGVPSRFSGSGSGTDFTLTISSLQPEDFATYYCQQYNNYPLTFGGGTKVEIK
notes: VH of the anti-CD38 scFv; 3xG4S linker, written out from the printed name; VL of the anti-CD38 scFv; what is left of the sortase recognition tag LPETGG after sortase A cleaves between threonine and glycine; the five N-terminal glycines of G5-silk, told in words; 4RepCT, a miniature form of the major ampullate spidroin 1 (MaSp 1) from Euprosthenops australis; The GG-His6 end is lost on coupling; …
In the case of B1, the binding result is “binds”.
